From article PMC4184034

System: dCas9 (SpyCas9 D10A/H840A) (Streptococcus pyogenes)
Experiment: DNA binding assay
Conditions: not given in the material (Methods are in the supplement, not held)

## crRNA:tracrRNA + 55-bp target dsDNA
  Kd: 4 nM
